Where a chain is given by its changes, count along the chain named.
Experiments:
[1] = system: T1, synthetic phosphotyrosine peptide Arg-Arg-Leu-Ile-Glu-Asp-Ala-Gle-Tyr-Ala-Ala-Arg-Gly, wherein the tyrosine is phosphorylated
T1 sequence: RRLIEDAEYAARG

[2] = molecular target: T2, PRL-3 (Homo sapiens, UniProt O75365); test: In vitro PTPase assay, recombinant PRL-3; format: biochemical; details: DiFMUP substrate
T2 construct: made in house; host or cells: E. coli DH5a
Description: Sodium stibogluconate, suramin, sodium orthovanadate and GST fusion protein of SHP-1 have been described previously (Pathak et al., J. Imumol. 167, 3391 (2001)). Meglumine antimonate was obtained from Aventis. cDNAs of human PRL-1, PRL-2 and PRL-3 coding region were derived by RT-PCR from H9 cells (Safai, et al., Lancet 1, 1438 (1984)) and inserted in frame into the pGEX vector. cDNA of PRL-1R86 was generated by recombinant DNA technique using PRL-1 cDNA as template following established procedures (Jiao, et al., Mol. Cell. Biol. 16, 6985 (1996)). GST fusion proteins of the PRL phosphatases were prepared from DH5a bacteria transformed with the pGEX fusion protein constructs as described previously (Yi, et al., Mol. Cell. Biol. 12, 836 (1992)). cDNAs encoding the PRLs tagged at the N-termini with the Flag epitope (Castrucci, et al., J. Virol. 66, 4647 (1992)) were generated via recombinant DNA technique, sequenced to confirm their identities and cloned into the pBabepuro vector (Yang, et al., Blood 91, 3746 (1998)). Anti-Flag monoclonal antibody (M2, Sigma) was purchased from a commercial source. A synthetic phosphotyrosine peptide (Arg-Arg-Leu-Ile-Glu-Asp-Ala-Gle-Tyr-Al- -a-Ala-Arg-Gly (SEQ ID NO: 3), wherein the tyrosine is phosphorylated; UBI) and DiFMUP (6,8-difluoro-4-methylumbelliferyl phosphate, Molecular Probes) were purchased as substrates for PTPase assays.
(§1) In vitro PTPase assays were used to determine the effects of compounds on recombinant PTPases, following established procedures using a synthetic phosphotyrosine peptide or DiFMUP as the substrate (Pathak et al., J. Imumol. 167, 3391 (2001)). Briefly, individual PTPases (0.1 µg/reaction) in 50 µL of PTPase buffer (50 mM Tris, pH 7.4) were incubated at 22° C. for 10 minutes or as indicated in the absence or presence of inhibitory compounds. Substrates (0.2 mM phosphotyrosine peptide) were then added and allowed to react at 22° C. for 18 hrs. PTPase activity of individual reactions was measured by adding 100 µL of malachite green solution (UBI) and then quantifying the amounts of free phosphate cleaved by the PTPase from the peptide substrate by spectrometry (OD660 nm). PTPase assays using DiFMUP as a substrate were conducted following a previously described procedure (Matter, et al., Biochem. Biophys. Res. Comm. 283, 1061 (2001)). Relative PTPase activities were calculated based on the formula: (PTPase activity in the presence of an inhibitory compound/PTPase activity in the absence of the compound)× 100%. To assess the reversibility of PTPase inhibition, GST fusion proteins of the PTPases bound on glutathione beads (Pharmacia) were pre-incubated with cold Tris buffer (50 mM Tris, pH 7.0) or Tris buffer containing the inhibitor at 4° C. for 30 minutes. The beads were then washed three times in cold Tris buffer or not washed prior to subjecting to in vitro PTPase assays.

[3] = molecular target: T3, SHP-1 (Mus musculus, UniProt P29351); test: In vitro PTPase assay, GST/SHP-1; format: biochemical
T3 construct: made in house
T3 sequence (P29351 whole entry): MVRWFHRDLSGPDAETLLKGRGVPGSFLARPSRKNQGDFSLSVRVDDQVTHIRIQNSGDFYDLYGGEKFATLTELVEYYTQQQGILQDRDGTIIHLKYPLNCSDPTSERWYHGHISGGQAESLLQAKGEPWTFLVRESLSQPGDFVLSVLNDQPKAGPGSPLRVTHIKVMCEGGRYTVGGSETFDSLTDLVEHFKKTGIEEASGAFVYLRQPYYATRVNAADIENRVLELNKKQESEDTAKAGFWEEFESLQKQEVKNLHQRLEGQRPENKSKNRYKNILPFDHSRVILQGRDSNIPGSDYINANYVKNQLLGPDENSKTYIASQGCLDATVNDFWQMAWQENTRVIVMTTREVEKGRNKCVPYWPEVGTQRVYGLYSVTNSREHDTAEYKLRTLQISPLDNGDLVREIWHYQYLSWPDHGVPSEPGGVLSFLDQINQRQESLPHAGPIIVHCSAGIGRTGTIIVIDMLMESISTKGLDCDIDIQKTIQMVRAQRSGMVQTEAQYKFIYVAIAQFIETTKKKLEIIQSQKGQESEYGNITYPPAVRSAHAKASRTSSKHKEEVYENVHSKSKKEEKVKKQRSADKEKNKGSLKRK
Procedure: In vitro PTPase activities were measured using the commercial protein tyrosine phosphatase assay kit (Upstate Biotechnology, Inc. (“UBI”)) following established procedure known to one of skill in the art. […] Briefly, 0.01 µg of GST/PTPase fusion proteins was incubated in 50 µl of Tris buffer (10 mM Tris, pH 7.4) containing different concentrations of inhibitors or chemicals (0-1,000 µg/ml) at 22° […] 100 µl of Malachite Green solution was added and incubated for 5 minutes, and the absorbance at 660 nm was measured after 5 minutes.
To assess the reversibility of inhibition of SHP-1 by PTPase inhibitors, GST/SHP-1 fusion protein bound on glutathione beads were pre-incubated in cold Tris buffer or Tris buffer containing the PTPase inhibitors at 4° C. for 30 minutes. The beads were then either subjected to in vitro PTPase assays or washed 3 times in Tris buffer then subjected to in vitro PTPase assays.
as §1, with “Briefly,” for “In vitro PTPase assays were used to determine the effects of compounds on recombinant PTPases, following established procedures using a synthetic phosphotyrosine peptide or DiFMUP as the substrate (Pathak et al., J. Imumol. 167, 3391 (2001)). Briefly,”, “PTPase assays using DiFMUP as a substrate were conducted following a previously described procedure (Matter, et al., Biochem. Biophys. Res. Comm. 283, 1061 (2001)).” left out

[4] = molecular target: T4, MKP1 (Homo sapiens, UniProt P28562); test: In vitro PTPase assay, GST/MKP1; format: biochemical; details: section VII comparison
T4 construct: made in house; host or cells: E. coli DH5a
T4 sequence (P28562 13-367 limits assumed): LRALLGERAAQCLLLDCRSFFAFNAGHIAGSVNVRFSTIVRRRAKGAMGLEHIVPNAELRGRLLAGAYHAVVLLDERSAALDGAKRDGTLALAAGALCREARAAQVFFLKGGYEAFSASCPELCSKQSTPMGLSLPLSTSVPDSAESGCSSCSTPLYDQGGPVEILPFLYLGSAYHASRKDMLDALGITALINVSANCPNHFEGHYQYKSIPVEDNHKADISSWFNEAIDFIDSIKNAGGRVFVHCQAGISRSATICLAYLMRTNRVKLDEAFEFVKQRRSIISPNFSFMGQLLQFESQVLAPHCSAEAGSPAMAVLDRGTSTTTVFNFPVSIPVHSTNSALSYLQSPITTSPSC
Procedure: In vitro PTPase activities were measured using the commercial protein tyrosine phosphatase assay kit (Upstate Biotechnology, Inc. (“UBI”)) following established procedure known to one of skill in the art. This assay measures the in vitro dephosphorylation of a synthetic phosphotyrosine peptide of the sequence Arg-Arg-Leu-Ile-Glu-Asp-Ala-Gle-T- -yr-Ala-Ala-Arg-Gly, wherein the tyrosine is phosphorylated (SEQ ID NO: 3). Briefly, 0.01 µg of GST/PTPase fusion proteins was incubated in 50 µl of Tris buffer (10 mM Tris, pH 7.4) containing different concentrations of inhibitors or chemicals (0-1,000 µg/ml) at 22° C. for 10 minutes, followed by addition of 0.2 mM of the phosphotyrosine peptide and incubation at 22° C. for 18 hours. 100 µl of Malachite Green solution was added and incubated for 5 minutes, and the absorbance at 660 nm was measured after 5 minutes.
(§2) In vitro PTPase assays were used to determine the effects of levamisole (Sigma), pentamidine (American Pharmaceutical Partners, Inc.), and ketoconazole (Sigma) on recombinant PTPases, following established procedures (Pathak et al., J. Imumol. 167, 3391 (2001); Pathak et al., Leukemia 16, 2285 (2002), Yi et al., J. Immunol. 169, 5978 (2002)) using a synthetic phosphotyrosine peptide or DiFMUP as the substrate as detailed above in section I.A.2.

[5] = system: GSTm8; test: In vitro PTPase assay, GSTm8; format: biochemical; details: 3-4 μg/ml or 10-100 μg/ml
Description: as §2

[6] = molecular target: T5, synthetic phosphotyrosine peptide Arg-Arg-Leu-Ile-Glu-Asp-Ala-Gle-Tyr-Ala-Ala-Arg-Gly, wherein the tyrosine is phosphorylated
T5 chain: RRLIEDAEYAARG

T2 sequence (O75365 whole entry): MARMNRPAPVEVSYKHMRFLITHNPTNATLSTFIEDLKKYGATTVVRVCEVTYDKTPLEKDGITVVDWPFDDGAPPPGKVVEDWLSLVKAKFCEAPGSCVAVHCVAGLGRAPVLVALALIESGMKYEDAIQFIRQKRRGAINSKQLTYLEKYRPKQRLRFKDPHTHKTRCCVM

## GST fusion protein of mitogen-activated protein kinase phosphatase 1 (MKP1)
[1]
  PTPase activity against the peptide substrate (660 nm absorbance, malachite green): 660 nm absorbance approximately 0.6 above background (0.03)

## [Na+].[Na+].[Na+].[O]=[V]([O-])([O-])[O-] [sodium orthovanadate]
[2]
  inhibition of PRL-3 compared with sodium stibogluconate: less effective

## GST fusion protein of SHP-2
[1]
  PTPase activity against the peptide substrate (660 nm absorbance, malachite green): 660 nm absorbance approximately 0.6 above background (0.03)

## GST fusion protein of protein tyrosine phosphatase 1B (PTP1B)
[1]
  PTPase activity against the peptide substrate (660 nm absorbance, malachite green): 660 nm absorbance approximately 0.6 above background (0.03)

## Cc1ccc(C(=O)Nc2ccc(S(=O)(=O)O)c3cc(S(=O)(=O)O)cc(S(=O)(=O)O)c23)cc1NC(=O)c1cccc(NC(=O)Nc2cccc(C(=O)Nc3cc(C(=O)Nc4ccc(S(=O)(=O)O)c5cc(S(=O)(=O)O)cc(S(=O)(=O)O)c45)ccc3C)c2)c1 [Suramin]
[3]; comparable conditions
  inhibition of SHP-1 compared with sodium stibogluconate: less effective
[3]; pre-incubated with inhibitor, beads washed
  inhibition of GST/SHP-1 after washing (reversibility): almost completely removed by the washing process
[2]
  inhibition of PRL-3 compared with sodium stibogluconate: less effective

## GST fusion protein of SHP-1
[1]
  PTPase activity against the peptide substrate (660 nm absorbance, malachite green): 660 nm absorbance approximately 0.6 above background (0.03)

## c1ccc([C@H]2CN3CCSC3=N2)cc1 [levamisole]
[3]; 3-4 μg/ml or 10-100 μg/ml
  inhibitory activity against SHP-1: no obvious inhibitory activity
[4]
  inhibition of MKP1: substantial inhibition
[5]
  inhibitory activity against GSTm8: no obvious inhibitory activity

B1: GST fusion protein of PRL-1R86 (protein)
chain: MARMNRPAPVEVTYKNMRFLITHNPTNATLNKFIEELKKYGVTTIVRVCEATYDTTLVEKEGIHVLDWPFDDGAPPSNQIVDDWLRLVKIKFREEPGCCIAVHCVAGLGRAPVLVALALIEGGMKYEDAVQFIRQKRRGAFNSKQLLYLEKYRPKMRLRFKDSNGHRNNCCIQ
[6]
  in vitro PTPase activity: showed in vitro PTPase activity similar to that of wild type PRL-1

B2: Flag-PRL-1 (protein)
chain: B1 chain with R86S
[6]
  PTPase activity of anti-Flag immunocomplexes (NIH3T3 transfectants): a markedly higher PTPase activity (about 23 folds) over that of control transfectants
  phosphatase activity of anti-Flag immunocomplexes (WM9 transfectants): showed phosphatase activities well above the background activity of the vector control cells

B3: Flag-PRL-1R86 (protein)
chain: B1 chain
[6]
  phosphatase activity of anti-Flag immunocomplexes (WM9 transfectants): showed phosphatase activities well above the background activity of the vector control cells

— patent publication US20080089860A1, “Therapeutic compositions and methods useful in treating cancer” (priority 2006, published 2008)
